Entries after “also recorded” stand apart in the source; their conditions may differ.
How the values were obtained:
[1] = Chromogenic reaction of degrading herbicides in bacteria: triclopyr; format: cell-based, Escherichia coli; conditions: recombinant E. coli expressing the gene
Experimental: To transform the plasmids to be tested, an AAD12-expressing plasmid and a blank control plasmid pET15b were respectively transformed into the protein expression E. coli BL21(DE3) strains. A monoclone was selected and inoculated in a 10 ml centrifuge tube with 3 ml LB medium, and cultivated at 37° C., 200 rpm for 6-8 hours. […] The temperature was switched to 28° C. and the cultivation continued overnight. In the next morning, 200 μL of each bacteria solution was taken and centrifuged to precipitate thallus, 180 μL of the supernatant was taken and added in a 96-well plate, and 20 μL of borate buffer of pH 10 was added. Then the mixture was added with 2 μL of 8% potassium ferricyanide and mixed well, followed by adding 2 μL of 2% 4-aminoantipyrine, and placed at room temperature for 5 min to observe the color and detect the A510 value. […]

[2] = tested on: Arabidopsis thaliana; test: Herbicide resistance of transgenic Arabidopsis thaliana seedlings on plate medium (root growth); format: in vivo; conditions: plate medium with 2,4-D (0.3 μmol)
[3] = Chromogenic reaction of degrading herbicides in bacteria: 2,4-D; format: cell-based, Escherichia coli; conditions: recombinant E. coli expressing the gene, 2,4-D added to the medium, red = phenols
Summary of the method: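 E. coli BL21(DE3) carrying AAD12 or empty pET15b was induced with 0.1 mM IPTG plus 2 mM α-ketoglutarate and given 0.5 mM 2,4-D, then grown overnight at 28 °C. Supernatant was treated with pH 10 borate, potassium ferricyanide and 4-aminoantipyrine for 5 min at room temperature; red colour read at A510.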

[4] = tested on: Arabidopsis thaliana; test: Herbicide resistance of transgenic Arabidopsis thaliana seedlings on plate medium (root growth); format: in vivo; conditions: for Resistance of transgenic Arabidopsis thaliana: 2,4-D / Resistance of transgenic Arabidopsis thaliana: MCPA: Arabidopsis overexpressing the gene
Summary of the method: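 T2 lines overexpressed AAD from the AtUbi10 promoter with the MAS terminator, with hygromycin selection; two events per construct were tested on plates against 2,4-D, 2,4-DB sodium and MCPA. The screening medium was MS plus 0.3 μM 2,4-D. Seeds were stratified 3 days at 4 °C, grown at 22 °C on 16 h light, and root elongation was compared with wild type after one week.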

[5] = format: cell-based, Escherichia coli

B1: QYD47: AAD-like enzyme, SEQ ID NO. 93 (protein)
chain: MATRLEIKPLDATFGAVVTGIKLAEIDEATWRELHATWLKYALLVFPGQFLKRDQQIAFAKHFGPLEFEMAAISNVKSDGTLRIEKDNDDVMKILKGNMGWHADSTYMPVQAKGAVFSAEEVPTVGGQTGWADMRAAYDALDDARRARVETLQAYHSLHYSQSKLGHETRKSDGEYSGYGLHNGPIPLRPLVKTHPETGRKSLLIGRHAHDIPGMDREESQSFLEELVDFACRPPRIYHHDWAAGDAVVWDNRCLLHQATPWDMTQRRIMWHSRIAGDPASESALAA
modifications: Synthetic polypeptide, QYD47, D47
Q: For B1, which “Chromogenic reaction of degrading herbicides in bacteria: Triclopyr” value (“Chromogenic reaction … Triclopyr” below) [1] is on record?
A: Yes

Q: And the “Chromogenic reaction … Triclopyr” value ([1]; listed as D47)?
A: slight degradation

Q: And the “2,4-D resistance of T1 generation transgenic seedlings (seminal root growth)” value (from here on “2,4-D resistance”) [2]?
A: showing tolerance to 2,4-D

Q: What about the “Chromogenic reaction of degrading herbicides in bacteria: 2,4-D” value (shortened to “Chromogenic reaction … 2,4-D”) [3] of the same molecule?
A: Yes

Q: And the “Chromogenic reaction … 2,4-D” value ([3]; listed as D47)?
A: could degrade 2,4-D; also recorded: capable of degrading 2,4-D

Q: And the “Resistance of transgenic Arabidopsis thaliana: 2,4-D” value [4]?
A: Yes

Q: What about the “Resistance of transgenic Arabidopsis thaliana: MCPA” value [4] of the same molecule?
A: Yes

Q: What about the “Chromogenic reaction of degrading herbicides in bacteria: MCPA” value (“Chromogenic reaction … MCPA” below) [5] of the same molecule?
A: Yes

B2: QYD48: AAD-like enzyme, SEQ ID NO. 95 (protein)
chain: MTDRLEIKPLDATFGAVVTGIRLAEIDEPTWRELHATWLKYALLVFPGQHLQRDQQIAFAKRFGPLEFEMAAISNVKSDGTLRIEEDNDDMMKILKGNMGWHADSTYMPVQAKGAVFSAEEVPTIGGQTGWADMRAAYDALDEARKAQIESLQAYHSLHYSQSQLGHQTGKSDGEYSGYGLHDGPVPLRPLVKTHPETGRKSLLIGRHAHNIPGMDRDEARRLLEGLIDFACQPPRIYHHDWAAGDAVVWDNRCLLHQATPWDMTQRRIMWHSRIAGDPASESALAA
modifications: Synthetic polypeptide, QYD48, D48
Q: What does the source list for B2?
A: Chromogenic reaction of degrading herbicides in bacteria: Triclopyr [1]: Yes; Chromogenic reaction of degrading herbicides in bacteria: Triclopyr ([1]; listed as D48): slight degradation; 2,4-D resistance of T1 generation transgenic seedlings (seminal root growth) [2]: showing tolerance to 2,4-D; Chromogenic reaction of degrading herbicides in bacteria: 2,4-D [3]: Yes; Chromogenic reaction of degrading herbicides in bacteria: 2,4-D ([3]; listed as D48): could degrade 2,4-D; also recorded: capable of degrading 2,4-D; Resistance of transgenic Arabidopsis thaliana: 2,4-D [4]: Yes; Resistance of transgenic Arabidopsis thaliana: MCPA [4]: Yes; Chromogenic reaction of degrading herbicides in bacteria: MCPA [5]: Yes

B3: QYD45: AAD-like enzyme, SEQ ID NO. 89 (protein)
chain: MARPFDIAPLDATFGAIVTGVKLAGLDEACWRALHAAWLQYALLVFPNQHLARVEQIAFAKRFGPLEFEMAAISNVRADGSLRVETDNDDMMKILKGNMGWHADSTYMPVQAKGAVFSAEVVPTIGGQTGFADMRAAYDALDEDLKARVETLQAYHSLHYSQSRLGHETKKADGEYSGYGLHDGPVPLRPLVKTHPETGRKSLLIGRHAHAIPGMEPGESERFLQELIDFACQPPRVYRHNWAPGDAVLWDNRCLLHQATPWDMTQKRIMWHSRIAGDAAGETALAH
modifications: Synthetic polypeptide, QYD45, D45
Q: With B3 as the molecule, how does the “2,4-D resistance” value [2] read?
A: showing tolerance to 2,4-D; also recorded: lower resistance

Q: And the “Chromogenic reaction … 2,4-D” value [3]?
A: Yes

Q: And the “Chromogenic reaction … 2,4-D” value ([3]; listed as D45)?
A: could degrade 2,4-D; also recorded: capable of degrading 2,4-D

Q: What about the “Resistance of transgenic Arabidopsis thaliana: 2,4-D” value [4] of the same molecule?
A: Yes

Q: What about the “Resistance of transgenic Arabidopsis thaliana: MCPA” value [4] of the same molecule?
A: Yes

Q: And the “MCPA resistance of T1 generation transgenic seedlings” value ([4]; plate medium with MCPA (0.1 μmol))?
A: obvious resistance

Q: And the “2,4-DB sodium resistance of T2 generation transgenic plants” value ([4]; plate medium, 2,4-DB sodium (0.7 μmol), two events per transformant)?
A: obvious resistance

Q: What about the “MCPA resistance of T2 generation transgenic plants” value ([4]; plate medium, MCPA (0.1 μmol), two events per transformant) of the same molecule?
A: obvious resistance

Q: And the “Chromogenic reaction … MCPA” value [5]?
A: Yes

B4: QYD43: AAD-like enzyme, SEQ ID NO. 85 (protein)
chain: MRRLHIAPTGATLGATVTGVSLAALDEPTWQAIYRAWLEHALLIFPGQHLSNQQQIGFARRFGAIERIGGGEIVAISNVKADGRVRAHTPAEWDDMMKVIVGNMAWHADSTYMPVMAKGAVFSGELVPTERGETSFADMRAAYDALDQATRALVHQRSAHHSLVYSQSKLGHVPGAQSAYLGYGMDQTTAPLRPLVKVHPETGRQSLLIGRHAHAIPGMDPAESEVFLEGLVEWACQPPRIHTHHWTAGDVVLWDNRCLLHRAMPWDLAQPRVMWHSRLAGDPVAEAALPPVAPAAATH
modifications: Synthetic polypeptide, QYD43, D43
Q: Which “Chromogenic reaction … Triclopyr” value [1] does the source give for B4 here?
A: Yes

Q: And the “Chromogenic reaction … Triclopyr” value ([1]; listed as D43)?
A: slight degradation

Q: What about the “2,4-D resistance” value [2] of the same molecule?
A: showing tolerance to 2,4-D

Q: And the “Chromogenic reaction … 2,4-D” value [3]?
A: Yes

Q: And the “Chromogenic reaction … 2,4-D” value ([3]; listed as D43)?
A: could degrade 2,4-D; also recorded: capable of degrading 2,4-D

Q: And the “Resistance of transgenic Arabidopsis thaliana: 2,4-D” value [4]?
A: Yes

Q: What about the “Resistance of transgenic Arabidopsis thaliana: MCPA” value [4] of the same molecule?
A: Yes

Q: What about the “Chromogenic reaction … MCPA” value [5] of the same molecule?
A: Yes

B5: QYD46: AAD-like enzyme, SEQ ID NO. 91 (protein)
chain: MARAFYITPLDATFGAVVTGVKLVDLDDAGWRELHAAWLQYALLVFPGQYLKRDQQIAFARRFGPLEFEMVAISNVRSDGTLRVEKDNDDVMKILKGNMGWHADSTYMPVQAKGAVFSAEVVPTIGGHTGFADMRAAYDALDDVRKARVENLQARHSLHYSQSKLGHETKKSDGEYHGYGLHDGPVPLRPLVKTHPETGRKSLLIGRHAHAIPGMDGPESEAFLQELIDFACQPPRIYHHDWAAGDAVLWDNRCLLHQATPWDMTQKRIMWHSRIAGDPASESALAH
modifications: Synthetic polypeptide, QYD46, D46
Q: For B5, which “Chromogenic reaction … Triclopyr” value [1] is on record?
A: Yes

Q: What about the “Chromogenic reaction … Triclopyr” value ([1]; listed as D46) of the same molecule?
A: slight degradation

Q: And the “2,4-D resistance” value [2]?
A: showing tolerance to 2,4-D

Q: What about the “Chromogenic reaction … 2,4-D” value [3] of the same molecule?
A: Yes

Q: And the “Chromogenic reaction … 2,4-D” value ([3]; listed as D46)?
A: could degrade 2,4-D; also recorded: capable of degrading 2,4-D

Q: What about the “Resistance of transgenic Arabidopsis thaliana: 2,4-D” value [4] of the same molecule?
A: Yes

Q: What about the “Resistance of transgenic Arabidopsis thaliana: MCPA” value [4] of the same molecule?
A: Yes

Q: And the “Chromogenic reaction … MCPA” value [5]?
A: Yes

B6: QYD49: AAD-like enzyme, SEQ ID NO. 97 (protein)
chain: MARTFDIEPLAGTTFGAVVRGMKVAILDDAGWRDLYAAWLKYALLVFPGQHLKRDEQIAFAKRFGALEFEMAALSNVKSDGTLRQEKDNDDMMKILKGNMGWHADSTYMPVQAKGAVFSAEIVPGAGGQTGFADMRAAYDALDAGRKAKVERLAAHHSLHYSQSKLGHQTKKQDGEYSGYGLHDGPVPLRPLVKTHPETGRKSLLIGRHAHNIPGMDKAESERLLQELVDFACQPPRVYHHDWTAGDAVVWDNRCLLHQATPWDMTQPRVMWHSRIAGDPRSEAALGVTAVSAAASG
modifications: Synthetic polypeptide, QYD49, D49
Q: Which “2,4-D resistance” value [2] does the source give for B6 here?
A: showing tolerance to 2,4-D

Q: What about the “Chromogenic reaction … 2,4-D” value [3] of the same molecule?
A: Yes

Q: And the “Chromogenic reaction … 2,4-D” value ([3]; listed as D49)?
A: could degrade 2,4-D; also recorded: capable of degrading 2,4-D

Q: What about the “Resistance of transgenic Arabidopsis thaliana: 2,4-D” value [4] of the same molecule?
A: Yes

Q: What about the “Resistance of transgenic Arabidopsis thaliana: MCPA” value [4] of the same molecule?
A: Yes

Q: And the “Chromogenic reaction … MCPA” value [5]?
A: Yes
